Experimental data from PMC12321133, “scFv intrabody targeting wildtype TDP-43 presents protective effects in a cellular model of TDP-43 proteinopathy” (PLOS One, 2025).

Molecular target: T1, commercial recombinant human full-length wtTDP-43 (Abcam, ab224788) (human, UniProt Q13148 1-414)
T1 construct: TDP-43 (TARDBP), human, wild type, recombinant full length; also called recombinant wtTDP-43; source: bought: Abcam, ab224788
Experiment: ELISA; indirect ELISA: wells coated overnight at 4 °C with commercial human wtTDP-43 at 1 µg/mL in PBS; purified scFv at 1, 5 or 10 µg/mL, 1 h at RT; detected with HRP-conjugated anti-6xHis antibody, absorbance at 450 nm
Conditions: both partners purified

T1 sequence (Q13148 whole entry): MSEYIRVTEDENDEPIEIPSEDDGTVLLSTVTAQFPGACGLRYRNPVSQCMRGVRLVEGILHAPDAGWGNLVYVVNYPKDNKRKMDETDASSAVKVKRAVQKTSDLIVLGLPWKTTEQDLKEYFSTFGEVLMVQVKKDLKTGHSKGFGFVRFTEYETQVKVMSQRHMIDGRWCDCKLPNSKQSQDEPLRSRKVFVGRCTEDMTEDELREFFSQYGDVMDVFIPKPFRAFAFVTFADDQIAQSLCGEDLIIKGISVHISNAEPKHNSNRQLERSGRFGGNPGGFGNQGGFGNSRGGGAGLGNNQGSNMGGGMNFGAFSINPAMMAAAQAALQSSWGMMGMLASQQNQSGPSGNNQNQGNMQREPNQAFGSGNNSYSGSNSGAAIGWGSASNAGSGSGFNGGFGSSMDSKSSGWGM

fold increase of the ELISA signal over the control scFv 13R4 at 5 µg/mL [fold]	fold increase of the ELISA signal over the control scFv 13R4 at 10 µg/mL [fold]	Binder
2	2	scFv D7, purified (c-myc and 6xHis tags) (scFv, VH of scFv D7 as printed; linker of the HuscI library between VH and VL; VL of scFv D7; Selected from the human synthetic HuscI library; The scFv was moved as an NcoI-NotI fragment from pHEN-HuscI into pET-23NN, which adds c-myc and 6xHis at the 3' end; source: E. coli BL21(DE3)pLysS, pET-23NN vector, purified (Ni-NTA, dialysed in MilliQ water); not shown: c-myc, C-terminal, kept; His6, …) scFv: MAEVQLVESGGSLVKPGGSLRLSCAASGFTFSNYYMNWVRQAPGKGLEWISDIYGSSRYISYADFVKGRFTISRDNATNSLYLQMNSLRAEDTAVYYCVRSSSNDGGGMDVWGRGTLVTVSSGGGGSGGGGSGGGGSQSVLTQPASVSGSPGQSITISCAGTSSDVGGNNYVSWYQQHPGKAPKLMIYYDSYRPSGVSNRFSGSKSGNTASLTISGLQAEDEADYYCSSYTYSSTRVFGGGTKLAVLG
5	3	scFv B1, purified (c-myc and 6xHis tags) (scFv, VH of scFv B1 as printed; linker of the HuscI library between VH and VL; VL of scFv B1; Selected from the human synthetic HuscI library; The scFv was moved as an NcoI-NotI fragment from pHEN-HuscI into pET-23NN, which adds c-myc and 6xHis at the 3' end; source: E. coli BL21(DE3)pLysS, pET-23NN vector, purified (Ni-NTA, dialysed in MilliQ water); not shown: c-myc, C-terminal, kept; His6, …) scFv: MAEVQLVESGGSLVKPGGSLRLSCAASGFTFSNYDMNWVRQAPGKGLEWISDIDGSSRNIYYADFVKGRFTISRDNATNSLYLQMNSLRAEDTAVYYCVRSSYYDNGMDVWGRGTLVTVSSGGGGSGGGGSGGGGSQSVLTQPASVSGSPGQSITISCAGTSSDVGGYDGVSWYQQHPGKAPKLMIYYDSYRPSGVSNRFSGSKSGNTASLTISGLQAEDEADYYCSSYTYYSTRVFGGGTKLAVLG
